The IC50 is the point on the concentration scale where inhibition reaches its midpoint.

In assay [1] the target is T1, recombinant HLA-A2.1 protein with β2-microglobulin (human). As to the kind of experiment: cell free competition assay: inhibition of binding of fluorescent [..] to recombinant HLA-A2.1 and β2-microglobulin, gel filtration, 4 experiments. The note with it: remark: other sources report otherwise. (In general: Size exclusion chromatography separates by hydrodynamic size, large species first.)

The target in assay [2] is T1, recombinant HLA-A2.1 protein with …. In words: cell free HLA-A2.1 peptide binding (competition) assay, HA-1^R against HA-1^H. The following applies: remark: other sources report otherwise.

B1: HA-1^H peptide … (minor histocompatibility antigen HA-1 nonapeptide, synthetic) (peptide)
peptide: VLHDDLLEA
Turning to B1, the IC50 in assay [1] was 30 nM.

B2: HA-1^R peptide … (allelic counterpart of HA-1, synthetic) (peptide)
peptide: VLRDDLLEA
B2: in assay [2], the fold lower binding affinity against the HA-1^H peptide was 10 fold. The IC50 in assay [1] worked out at 365 nM.

Source of the values: patent publication US20050233350A1.
